Laboratory results as given in patent US20150175992A1.

What was measured:
Test in all cases: cell-based or functional assay
[1] = target: Bacillus subtilis XynA variant G13Y/T110A/Y113D/R122D/W164F/Q175L (Bacillus subtilis) (UniProt P18429)
[2] = target: Bacillus subtilis XynA variant G13Y/T110A/Y113D/R122D/S162D/Q175L (Bacillus subtilis) (UniProt P18429)
[3] = target: Bacillus subtilis XynA variant G13Y/K99Y/T104W/T110A/Y113D/N114F/R122F/K154R/N159D/Q175L (Bacillus subtilis) (UniProt P18429)
[4] = target: Bacillus subtilis XynA variant D11F/R122D/T110A (Bacillus subtilis) (UniProt P18429)
[5] = target: Bacillus subtilis XynA variant D11F/R122D/T110A/Y113A (Bacillus subtilis) (UniProt P18429)
[6] = target: Bacillus subtilis XynA variant G13Y/K99Y/T104W/T110A/Y113D/R122F/K154R/N159D/Q175L (Bacillus subtilis) (UniProt P18429)
[7] = target: Bacillus subtilis XynA wildtype xylanase (SEQ ID No. 1) (Bacillus subtilis) (UniProt P18429)
[8] = target: Bacillus subtilis XynA variant G13Y/T110A/Y113D/R122D/S162E/Q175L (Bacillus subtilis) (UniProt P18429)
[9] = target: Bacillus subtilis XynA variant G13Y/K99Y/T104W/T110A/Y113D/R122F/K154R/N159D/Q175/V81I (Bacillus subtilis) (UniProt P18429)
[10] = target: Bacillus subtilis XynA variant G13Y/T110A/Y113D/R122D/Q175L (Bacillus subtilis) (UniProt P18429)
[11] = target: Bacillus subtilis XynA variant G13Y/I77M/K99Y/T104W/T110A/Y113D/R122F/K154R/N159D/Q175L (Bacillus subtilis) (UniProt P18429)
[12] = target: Bacillus subtilis XynA variant G13Y/K99Y/T104W/T110A/Y113D/N114Y/R122F/K154R/N159D/Q175L (Bacillus subtilis) (UniProt P18429)
[13] = target: Bacillus subtilis XynA variant G13Y/K99Y/T104W/T110A/Y113D/R122F/K154R/N159D/Y166F/Q175L (Bacillus subtilis) (UniProt P18429)
[14] = target: Bacillus subtilis XynA variant G13Y/G34K/T110A/Y113D/R122D/Q175L (Bacillus subtilis) (UniProt P18429)
[15] = target: Bacillus subtilis XynA variant G13Y/K99Y/T104W/T110A/Y113D/N114D/R122F/K154R/N159D/Q175L (Bacillus subtilis) (UniProt P18429)
[16] = target: Bacillus subtilis XynA variant G13Y/I77S/K99Y/T104W/T110A/Y113D/R122F/K154R/N159D/Q175L (Bacillus subtilis) (UniProt P18429)
[17] = target: Bacillus subtilis XynA variant G13Y/I77Y/K99Y/T104W/T110A/Y113D/R122F/K154R/N159D/Q175L (Bacillus subtilis) (UniProt P18429)
[18] = target: Bacillus subtilis XynA variant G13Y/K99Y/T104W/T110A/Y113D/N114Y/R122F/K154R/N159D/Q175K (Bacillus subtilis) (UniProt P18429)
[19] = target: Bacillus subtilis XynA variant G13Y/T110A/Y113D/R122D/K154R/N159D/Q175L (Bacillus subtilis) (UniProt P18429)
[20] = target: Bacillus subtilis xylanase variant BS3 (wildtype with D11F/R122D mutations) (Bacillus subtilis) (UniProt P18429)
[21] = target: Bacillus subtilis XynA variant G13Y/K99Y/T104W/T110A/Y113D/N114D/R122F/K154R/N159D/Q175K (Bacillus subtilis) (UniProt P18429)
[22] = target: Bacillus subtilis XynA variant G13Y/K99Y/T104W/T110A/Y113D/I118V/R122F/K154R/N159D/Q175L (Bacillus subtilis) (UniProt P18429)
[23] = target: Bacillus subtilis XynA variant G13Y/I77L/K99Y/T104W/T110A/Y113D/R122F/K154R/N159D/Q175L (Bacillus subtilis) (UniProt P18429)
[24] = target: Bacillus subtilis XynA variant G13Y/I77V/K99Y/T104W/T110A/Y113D/R122F/K154R/N159D/Q175L (Bacillus subtilis) (UniProt P18429)
[25] = target: Bacillus subtilis XynA variant G13Y/T110A/Y113D/R122F/Q175L (Bacillus subtilis) (UniProt P18429)
[26] = target: Bacillus subtilis XynA variant G13Y/K99Y/T104W/T110A/Y113D/R122F/K154R/N159D/Q175K (Bacillus subtilis) (UniProt P18429)

crude inhibitor preparation (containing both TAXI and XIP) from wheat (Triticum aestivum) flour
% Activity @ 50 XIU/ml (residual xylanase activity) [1]: 29%
% Activity @ 50 XIU/ml (residual xylanase activity) [2]: 40%
% Activity @ 50 XIU/ml (residual xylanase activity) [3]: 79%
% Activity @ 5.6 XIU/ml (residual xylanase activity) [4]: 98%
% Activity @ 33.5 XIU/ml (residual xylanase activity) [4]: 100%
% Activity @ 5.6 XIU/ml (residual xylanase activity) [5]: 99%
% Activity @ 50 XIU/ml (residual xylanase activity) [6]: 64%
% Activity @ 5.6 XIU/ml (residual xylanase activity) [7]: 29%
% Activity @ 50 XIU/ml (residual xylanase activity) [8]: 44%
% Activity @ 50 XIU/ml (residual xylanase activity) [9]: 46%
% Activity @ 33.5 XIU/ml (residual xylanase activity) [10]: 50%
% Activity @ 50 XIU/ml (residual xylanase activity) [11]: 46%
% Activity @ 50 XIU/ml (residual xylanase activity) [12]: 78%
% Activity @ 50 XIU/ml (residual xylanase activity) [13]: 68%
% Activity @ 50 XIU/ml (residual xylanase activity) [14]: 97%
% Activity @ 50 XIU/ml (residual xylanase activity) [15]: 79%
% Activity @ 50 XIU/ml (residual xylanase activity) [16]: 20%
% Activity @ 50 XIU/ml (residual xylanase activity) [17]: 37%
% Activity @ 50 XIU/ml (residual xylanase activity) [18]: 84%
% Activity @ 50 XIU/ml (residual xylanase activity) [19]: 32%
% Activity @ 5.6 XIU/ml (residual xylanase activity) [20]: 100%
% Activity @ 33.5 XIU/ml (residual xylanase activity) [20]: 100%
% Activity @ 50 XIU/ml (residual xylanase activity) [20]: 95%
% Activity @ 50 XIU/ml (residual xylanase activity) [21]: 79%
% Activity @ 50 XIU/ml (residual xylanase activity) [22]: 79%
% Activity @ 50 XIU/ml (residual xylanase activity) [23]: 75%
% Activity @ 50 XIU/ml (residual xylanase activity) [24]: 45%
% Activity @ 50 XIU/ml (residual xylanase activity) [25]: 65%
% Activity @ 50 XIU/ml (residual xylanase activity) [26]: 72%
